Data set [1] in a line: folding stability dG unfold from chymotrypsin proteolysis; higher = more stable. Summed up: (§1)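 How resistant each design was to proteolysis was captured as K50, inferred by Bayesian fitting of sequencing counts. Unfolding free energy was then derived relative to a sequence-predicted unfolded-state K50 and a shared folded-state K50, per protease or combined. Digestion used trypsin and chymotrypsin at 11 threefold-diluted concentrations plus a no-protease condition, on mini-proteins under 80 residues without cysteine in a PA-tagged cDNA display construct. Designs were kept only when AlphaFold2 dimer inter-PAE was above 15.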

Data set [2] in a line: folding stability dG unfold (combined trypsin and chymotrypsin); higher = more stable. Summed up: as §1
Data set [3] is described as follows: folding stability dG unfold from trypsin proteolysis; higher = more stable. Summed up:
as §1

Here are results for 26 sequences from the supplement of paper PMC12764529.

± gives the half width of the 95% confidence interval. Where only a bound is given, the exact number is not on record here.

In the case of “SAGGSAGGSADIKVEVEYDKSNGYMWVKIKLPGKDIPIWIPPNDSPEQMEEKAIDFAKYLLKSAGGSAGGSA [r18_266_TrROS]”, the figures for the “folding stability dG unfold” value in data set [1], in data set [2] and in data set [3] were 0.765 ± 0.21 kcal/mol, 0.791 ± 0.27 kcal/mol and 0.592 ± 0.12 kcal/mol, respectively.
The matching figures for “SAGGSAGGSADNKPFKVEIDVEHHPPNGYYRVTIEWPDGREIVVWMPGNPDEAKDQAKELISAGGSAGGSAG [r3_143_TrROS]”: 1.26 ± 0.22 kcal/mol, 1.31 ± 0.16 kcal/mol and 1.28 ± 0.04 kcal/mol.
On the same counts, the results for “SAGGSAGGSADPPRSVLKEERSPDGTTTYKLLEYPGERVLVVTRTPPDGTEEVVLIPEEELSAGGSAGGSAG [r3_167_JUSTAS]” are 0.0217 ± 0.25 kcal/mol, 0.231 ± 0.086 kcal/mol and 0.322 ± 0.071 kcal/mol.
The matching figures for “SAGGSAGGSADYFMVVIKYYPPNGEKQEHPFSVPFKDEEDLKDEIKEQAPPGREVEIEIFPMSAGGSAGGSA [r18_60_TrROS]”: -0.0385 ± 0.17 kcal/mol, 0.647 ± 0.12 kcal/mol and 0.956 ± 0.083 kcal/mol.
For the sequence “SAGGSAGGSAEDVVLKVKIEIPSSDGTLLEIDEAIYNPKPGTLHFKIRSPDGSEFEIEIPLDSAGGSAGGSA [r18_370_TrMRF]”, the results for the “folding stability dG unfold” value in data set [1], in data set [2] and in data set [3] were 1.44 ± 0.13 kcal/mol, 1.12 ± 0.082 kcal/mol and 0.725 ± 0.033 kcal/mol, respectively.
On to “SAGGSAGGSAEELAKKLAEELRKEHNLEVTVEEVELKEEEIPGLKFKPGQKLLVITVKKKDSAGGSAGGSAG [r3_229_TrROS_Hall]”, for which the “folding stability dG unfold” value in data set [1] was 0.227 ± 0.069 kcal/mol; in data set [2], 0.604 ± 0.13 kcal/mol; in data set [3], 0.901 ± 0.033 kcal/mol.
On the same counts, the results for “SAGGSAGGSAEELLKAFPNAEIVKYDPETKKFIIKLKDGSYLVVNLETGEIKLVSKEELEKASAGGSAGGSA [r18_381_TrROS_Hall]” are 3.94 ± 0.066 kcal/mol, 3.67 ± 0.076 kcal/mol and 2.66 ± 0.11 kcal/mol.
For “SAGGSAGGSAEEPEFEIVSVEYDPETNVLTVVVRDKKTGRLYVFRFYPDGTVEVREVSLEDLSAGGSAGGSA [r18_521_TrROS_Hall]”, the results for the “folding stability dG unfold” value in data set [1], in data set [2] and in data set [3] were 5.03 ± 0.057 kcal/mol, 4.74 ± 0.076 kcal/mol and 3.37 ± 0.064 kcal/mol, respectively.
On the same counts, the results for “SAGGSAGGSAEKPPPPVVTLRVRVVVEVDGKLYVATAEVRLVDGKLEIRVRIEEVPPGAPVSAGGSAGGSAG [r3_49_TrROS_Hall]” are 4.59 ± 0.22 kcal/mol, 4.34 ± 0.17 kcal/mol and 3.7 ± 0.12 kcal/mol.
The matching figures for “SAGGSAGGSAEPGPEELAKALAGELEKRFGKPVKEVKAYEIPGEKRYIVTAKLDDGEFTIIASAGGSAGGSA [r18_145_TrMRF]”: -0.235 ± 0.28 kcal/mol, -0.121 ± 0.38 kcal/mol and -0.267 ± 0.28 kcal/mol.
On the same counts, the results for “SAGGSAGGSAEPPRYLVIELEVERSPEEIAEELRRRLGIERVEVEYDPETERLRVRVVVRLPSAGGSAGGSA [r18_275_TrROS_Hall]” are 3.37 ± 0.047 kcal/mol, 2.88 ± 0.11 kcal/mol and 1.96 ± 0.048 kcal/mol.
Consider “SAGGSAGGSAEPVRLVVVTPGFPDGPPIPVEELEALLEAEDVTVVDPFTIPELGYVVLLVEASAGGSAGGSA [r18_466_TrMRF]”, for which the “folding stability dG unfold” value is 0.728 ± 0.092 kcal/mol in data set [1], 1.07 ± 0.1 kcal/mol in data set [2] and 1.4 ± 0.048 kcal/mol in data set [3].
The matching figures for “SAGGSAGGSAETFTLPGGYTITVEPTEGGVKVTITHPDGSKGEVELGPTEPLVVDPDGATILASAGGSAGGS [r12_281_TrMRF]”: 1.66 ± 0.093 kcal/mol, 1.66 ± 0.1 kcal/mol and 1.49 ± 0.079 kcal/mol.
On the same counts, the results for “SAGGSAGGSAEVEIEFVSYDPSTGRLVRKRVKLKLLPDPKGGPVEVVEVEVDPGGPVPAGASAGGSAGGSAG [r3_397_TrMRF]” are 2.08 ± 0.046 kcal/mol, 2.11 ± 0.12 kcal/mol and 1.91 ± 0.053 kcal/mol.
“SAGGSAGGSAEVEIEVDKETKELYIKDSNGKVKKIKVKVVKVEVKKPVVTLPKEELSEEELKSAGGSAGGSA [r18_59_TrROS_Hall]”: the “folding stability dG unfold” value in data set [1] is -0.357 ± 0.17 kcal/mol; in data set [2] it was 0.258 ± 0.33 kcal/mol; in data set [3], 0.818 ± 0.084 kcal/mol.
The matching figures for “SAGGSAGGSAEVFIVKFSDPAKLKAFMEKLGLSYEKGDNPKITNPEEFLKNLPLVKNVVVTKKSAGGSAGGS [r12_571_JUSTAS]”: 0.54 ± 0.14 kcal/mol, 0.423 ± 0.057 kcal/mol and 0.286 ± 0.12 kcal/mol.
On the same counts, the results for “SAGGSAGGSAEVPKPGEAKPVLVTSSFTIPLPNGGTLEITTVDLVDVATGTVTPRVEVRSLDSAGGSAGGSA [r18_123_TrMRF]” are -0.991 ± 0.88 kcal/mol, < -1 kcal/mol and -0.786 ± 0.33 kcal/mol.
Regarding “SAGGSAGGSAFTIHDLKLNKVEVHPDGTVTYHLEVTLPSGEKLKVVVLVDPRKPSLATFYFSSAGGSAGGSA [r18_97_TrMRF]”, the “folding stability dG unfold” value was determined as 3.31 ± 0.057 kcal/mol in data set [1], 2.94 ± 0.13 kcal/mol in data set [2] and 2.31 ± 0.2 kcal/mol in data set [3].
On to “SAGGSAGGSAFVWNPDTGTFIQLDPNDGTIEVFEIENDNDGKLEPIGTVEVDPDDPDKGTITSAGGSAGGSA [r18_448_TrROS]”, for which the entries for the “folding stability dG unfold” value in data set [1], in data set [2] and in data set [3] were 1.23 ± 0.069 kcal/mol, 1.5 ± 0.1 kcal/mol and 1.75 ± 0.13 kcal/mol, respectively.
On the same counts, the results for “SAGGSAGGSAGAEIKIKKVEKKDSKLKLILPDGRIYEVKKDKKKSNSIKKIKIKKLPPLKSAGGSAGGSAGG [r17_173_JUSTAS]” are -0.181 ± 0.59 kcal/mol, -0.0549 ± 0.47 kcal/mol and 0.113 ± 0.34 kcal/mol.
The matching figures for “SAGGSAGGSAGAKVKVFKVRAEVKLTRTADGELVAEVTEVEIEEVEVEVRPPPPPPLPPASAGGSAGGSAGG [r11_381_TrROS_Hall]”: 3.11 ± 0.14 kcal/mol, 2.92 ± 0.35 kcal/mol and 1.67 ± 0.24 kcal/mol.
With “SAGGSAGGSAGAPPGSTVTVTYTVTTTVTDRVPDGPGFTNPHTLTSTVTTTVNVGHPDLVSAGGSAGGSAGG [r11_734_TrMRF]”, the “folding stability dG unfold” value amounted to 0.00274 ± 0.17 kcal/mol in data set [1], 0.585 ± 0.12 kcal/mol in data set [2] and 0.833 ± 0.058 kcal/mol in data set [3].
The matching figures for “SAGGSAGGSAGAPTVKLTFTVTRTETKTETLPDGTTKTETKTETRTVTLTLAPGETITVTSAGGSAGGSAGG [r11_174_TrROS_Hall]”: 4.27 ± 0.077 kcal/mol, 3.98 ± 0.11 kcal/mol and 3.39 ± 0.084 kcal/mol.
Turning to “SAGGSAGGSAGASLKEELGFAEVLSRSPTPDTEPLLLKHPEGGELVTVEVDAATAVEWLESAGGSAGGSAGG [r11_630_JUSTAS]”, the results for the “folding stability dG unfold” value in data set [1], in data set [2] and in data set [3] were 0.424 ± 0.17 kcal/mol, 0.354 ± 0.24 kcal/mol and 0.343 ± 0.091 kcal/mol, respectively.
Consider “SAGGSAGGSAGASPTAPAVTVEVKTEEVPNNDLLKTTTTTYFPGTGTTVTTETILPPGLGSAGGSAGGSAGG [r11_746_JUSTAS]”, for which the “folding stability dG unfold” value was -0.269 ± 0.086 kcal/mol in data set [1], -0.00225 ± 0.12 kcal/mol in data set [2] and 0.187 ± 0.053 kcal/mol in data set [3].
Regarding “SAGGSAGGSAGATISPDGYKIVVTNADGEKVTLTFDSLEEAKAALEALLPPGARVFIEKVSAGGSAGGSAGG [r11_983_TrROS_Hall]”, the “folding stability dG unfold” value turned out to be 2.009 ± 0.011 kcal/mol in data set [1], 1.61 ± 0.031 kcal/mol in data set [2] and 0.529 ± 0.035 kcal/mol in data set [3].
